In patent publication US20230090901A1 (GAMMADELTA THERAPEUTICS, published 2023):

How the values were obtained:
[1] = target: T1, BSA (bovine, UniProt P02769); assay: DELFIA ELISA, coated antigen;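 note: binding of antibody supernatants or protein-A purified antibodies to plate-coated antigen (3 µg/ml recombinant TCR or BSA), 1 h incubation at room temperature, DELFIA readout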
T1 construct: coated at 3 µg/ml; also called bovine serum albumin, control antigen of the DELFIA ELISA
Method: (§1) A DELFIA ELISA binding method was also employed to assess binding of antibody supernatants or further protein-A purified antibody. In brief, MaxiSorp plates were coated with 3 μg/ml of antigen BSA or L1 (DV1-GV4), L2 (DV1-GV2), L3 (DV1-GV8), or L4 (DV2-GV4) recombinant TCR antigen. Plates were then washed with PBS, blocked with PBS/skimmed milk and then test article added and incubated for 1 hour at room temperature.

[2] = target: L2 (DV1-GV2), soluble leucine zipper γδ TCR heterodimer of a delta variable 1 chain and a gamma variable 2 … (human); assay: DELFIA ELISA, coated antigen;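 note: binding of antibody supernatants or protein-A purified antibodies to plate-coated antigen (3 µg/ml recombinant TCR or BSA), 1 h incubation at room temperature, DELFIA readout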
L2 (DV1-GV2), soluble leucine zipper γδ TCR heterodimer of a delta variable 1 chain and a gamma variable 2 … (human), sequence (chain, as listed by the source mutant, chain 1 of 2): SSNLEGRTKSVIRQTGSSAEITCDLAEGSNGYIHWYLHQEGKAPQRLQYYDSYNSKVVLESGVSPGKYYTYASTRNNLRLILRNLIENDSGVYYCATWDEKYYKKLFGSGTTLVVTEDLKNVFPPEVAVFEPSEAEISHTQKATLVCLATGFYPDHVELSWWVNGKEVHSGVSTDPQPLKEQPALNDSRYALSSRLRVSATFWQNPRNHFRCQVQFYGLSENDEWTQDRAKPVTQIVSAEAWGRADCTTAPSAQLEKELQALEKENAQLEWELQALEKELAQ
L2 (DV1-GV2), soluble leucine zipper γδ TCR heterodimer of a delta variable 1 chain and a gamma variable 2 … (human), sequence (chain, as listed by the source mutant, chain 2 of 2): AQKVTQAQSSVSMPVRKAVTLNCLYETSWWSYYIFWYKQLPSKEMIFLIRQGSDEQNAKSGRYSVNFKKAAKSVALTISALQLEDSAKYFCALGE
Method: as §1

[3] = target: L3 (DV1-GV8), soluble leucine zipper γδ TCR heterodimer of a delta variable 1 chain and a gamma variable 8 … (human); assay: DELFIA ELISA, coated antigen;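 note: binding of antibody supernatants or protein-A purified antibodies to plate-coated antigen (3 µg/ml recombinant TCR or BSA), 1 h incubation at room temperature, DELFIA readout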
L3 (DV1-GV8), soluble leucine zipper γδ TCR heterodimer of a delta variable 1 chain and a gamma variable 8 … (human), sequence (chain, as listed by the source mutant, chain 1 of 2): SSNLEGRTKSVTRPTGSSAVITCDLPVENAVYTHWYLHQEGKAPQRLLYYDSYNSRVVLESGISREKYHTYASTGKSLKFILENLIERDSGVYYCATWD
L3 (DV1-GV8), soluble leucine zipper γδ TCR heterodimer of a delta variable 1 chain and a gamma variable 8 … (human), sequence (chain, as listed by the source mutant, chain 2 of 2): as the sequence (chain, as listed by the source mutant, chain 2 of 2) above
Method: as §1

[4] = target: T2, L1 (DV1-GV4), soluble leucine zipper γδ TCR heterodimer of a delta variable 1 chain and a gamma variable 4 … (human); assay: DELFIA ELISA, coated antigen;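 note: binding of antibody supernatants or protein-A purified antibodies to plate-coated antigen (3 µg/ml recombinant TCR or BSA), 1 h incubation at room temperature, DELFIA readout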
T2 construct: also called bt-L1; not shown: histidine tag/linker said to follow the zipper
T2 sequence (main, as listed by the source, chain 1 of 2): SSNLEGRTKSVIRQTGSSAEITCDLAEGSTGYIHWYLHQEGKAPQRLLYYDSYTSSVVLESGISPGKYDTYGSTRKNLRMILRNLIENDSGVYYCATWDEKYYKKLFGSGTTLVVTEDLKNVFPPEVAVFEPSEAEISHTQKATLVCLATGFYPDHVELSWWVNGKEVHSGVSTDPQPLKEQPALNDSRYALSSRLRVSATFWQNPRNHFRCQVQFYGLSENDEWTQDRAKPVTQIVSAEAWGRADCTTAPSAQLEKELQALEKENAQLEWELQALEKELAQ
T2 sequence (main, as listed by the source, chain 2 of 2): as the sequence (chain, as listed by the source mutant, chain 2 of 2) above

[5] = target: T2, L1 (DV1-GV4), soluble leucine zipper γδ …; assay: SPR (Reichert 4SPR), L1 coupled to chip, IgG1 flowed, steady state 1:1 fit; average
Method: (§2) In brief, the binding affinity of the antibodies to target (i.e. the human Vγ4 chain of a γδ TCR) was established by SPR analysis using a Reichert 4SPR instrument (Reichert Technologies). […] All experiments were performed at room temperature, with the samples kept at 4° C. before flowing over the chip. Steady state fitting was determined according to Langmuir 1:1 binding using software TraceDrawer (Reichert Technologies).

[6] = target: T2, L1 (DV1-GV4), soluble leucine zipper γδ …; assay: SPR (Reichert 4SPR), L1 coupled to chip, IgG1 flowed, steady state 1:1 fit; experiment 1
Method: as §2

[7] = target: T2, L1 (DV1-GV4), soluble leucine zipper γδ …; assay: SPR (Reichert 4SPR), L1 coupled to chip, IgG1 flowed, steady state 1:1 fit; experiment 2
Method: as §2

T1 sequence (P02769 25-607 limits assumed): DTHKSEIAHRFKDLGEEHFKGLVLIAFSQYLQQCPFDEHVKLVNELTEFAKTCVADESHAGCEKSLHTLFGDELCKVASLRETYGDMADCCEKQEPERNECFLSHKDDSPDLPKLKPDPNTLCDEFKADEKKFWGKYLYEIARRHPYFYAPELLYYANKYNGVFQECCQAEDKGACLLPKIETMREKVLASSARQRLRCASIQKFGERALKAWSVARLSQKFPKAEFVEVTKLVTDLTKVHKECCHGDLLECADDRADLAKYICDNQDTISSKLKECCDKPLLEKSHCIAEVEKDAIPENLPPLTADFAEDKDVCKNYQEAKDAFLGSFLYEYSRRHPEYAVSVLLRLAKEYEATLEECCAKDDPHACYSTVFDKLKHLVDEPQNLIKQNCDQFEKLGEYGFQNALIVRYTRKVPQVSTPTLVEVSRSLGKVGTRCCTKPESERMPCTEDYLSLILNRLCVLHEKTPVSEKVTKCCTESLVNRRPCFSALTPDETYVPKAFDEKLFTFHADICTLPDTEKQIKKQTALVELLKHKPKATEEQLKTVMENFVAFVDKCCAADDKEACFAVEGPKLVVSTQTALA

Row | Binder | DELFIA ELISA response (FU) [1] [FU] | binding result [1] | DELFIA ELISA response (FU) [2] [FU] | DELFIA ELISA response (FU) [3] [FU] | DELFIA ELISA response (FU) [4] [FU] | Kd [5] [nM] | Kd [6] [nM] | Kd [7] [nM]
1 | G4_28 (antibody, human IgG1, V domains shown, also called clone G4_28) VH: QVQLVESGGGLVQPGGSLRLSCAASGFTFDDYAMHWVRQAPGKGLEWVSGISAGGGSTNYAGSVKGRFTVSRDTSKNTLYLQMNSLRAEDTAVYYCVKSYVDTAMRYYYYYMDVWGQGTMVTVSS VL: SSYELTQDPAVSVALGQTVTITCQGDSLRNYYASWYRQKPGQTPVLVVYGKNNRPSGIPDRFSVSASGNTASLTITGAQAEDEGDYYCNSRDSSGVVFGGGTKVTVLG | 65 | no binding | 576 | 984 | 227000 |  |  | 
2 | G4_15 (antibody, human IgG1, V domains shown, also called clone G4_15) VH: EVQLVQSEAEVKKPGASVKVSCKASGYTFTRHYMHWVRQAPGQGLEWMGLINPSGSSTVYAQKFQGRVTLTRDTSTSTDYMELSSLRSEDTAVYYCARDNSHLDQVWWFDPWGQGTLVTVSS VL: SQSALTQPASVSGSPGQSITISCTGTSSDVGGYNYVSWYQQHPGKAPKLMIYDVSNRPSGVSNRFSGSKSGNTASLTISGLQAEDEADYYCSSYGSGSVFGTGTKLTVLG | 63 | no binding | 844 | 156 | 119000 |  |  | 
3 | G4_25 (antibody, human IgG1, V domains shown, also called clone G4_25) VH: EVQLVESGAEVKKPGSSVKVSCKASGGTFSSYAISWVRQAPGQGLEWMGGIIPIFGTANYAQKFQGRVTITADKSTSTAYMELSSLRSEDTAVYYCARSLRDGYNYIGSLGYWGQGTLVTVSS VL: SQSALTQPRSVSGSPGQSVTISCTGTSSDVGGYNYVSWYQQHPGKAPKLMIYEVSNRPSGVSNRFSGSKSGNTASLTISGLQAEDEADYYCSSYGSGSVFGTGTKLTVLG | 40 | no binding | 486 | 885 | 21700 |  |  | 
4 | G4_26 (antibody, human IgG1, V domains shown, also called clone G4_26) VH: QVQLVQSGAEVKKPGSSVKVSCKASGGTFSSYAISWVRQAPGQGLEWMGGIIPIFGTANYAQKFQGRVTITADESTSTAYMELSSLRSEDTAVYYCASSRGSGWFPLGYWGQGTLVTVSS VL: SQSGLTQPASVSGSPGQSITISCTGTSSDVGSYNLVSWYQQHPGKAPKLMIYEVSKRPSGVSNRFSGSKSGNTASLTISGLQAEDEADYYCSSFGSGSIFGTGTKLTVLG | 51 | no binding | 680 | 870 | 22800 |  |  | 
5 | G4_19 (antibody, human IgG1, V domains shown, also called clone G4_19) VH: EVQLVQSGAEVKKPGASVKVSCKASGYTLTSYYMHWVRQAPGQGLEWMGIINPSGGSTSYAQKFQGRVTMTRDTSTSTVYMELSSLRSEDTAVYYCARERGYSYGDGMDVWGQGTTVTVSS VL: SNFMLTQPHSVSESPGKTVTISCTRSSGSIASNYVQWYQQRPGSPPITLIYDDDQRPSGVPHRFSGSIDTSSNPASLTISGLKTEDEADYYCQSYDSSNHVVFGGGTKLTVLG | 55 | no binding | 73 | 192 | 142000 |  |  | 
6 | G4_24 (antibody, human IgG1, V domains shown, also called clone G4_24) VH: QVQLQQSGPGLVKPSQTLSLTCAISGASVSSNSVAWNWIRQSPSRGLEWLGRTYYRSRWYNDYALSVKSRIIINPDTSKNQFSLQLNSVTPEDTAVYYCARDWSSTRSFDYWGRGTLVTVSS VL: not shown | 53 | no binding | 534 | 960 | 154000 |  |  | 
7 | G4_5 (antibody, V domains shown, also called clone G4_5) VH: EVQLVQSGAEVKKPGSSVKVSCKASGYTFTSYGISWVRQAPGQGLEWMGWIGAYNGNTNYAQKLQGRVTMSTDTSTSTAYMELRSPRSDDTAVYYCARGGTGGDHVFAYWGQGTTVTVSS VL: not shown | 86 | no binding |  |  | 163000 |  |  | 
8 | G4_14 (antibody, human IgG1, V domains shown, also called clone G4_14) VH: EVQLVQSGAEVKKPGESLRISCKGSGYSFTSYWISWVRQMPGKGLEWMGRIDPSDSYTNYSPSFPGHVTISADKSISTAYLQWSSLKASDTAMYYCAADTAHGMDVWGRGTLVTVSS VL: SNFMLTQPHSVSESPGKTVTISCTRSRGSIAGNYVHWYQQRPGRAPTTVIYRDKERPSGVPDRISGSIDSSSNSASLTISGLKTEDEADYYCQSYDSSTHVVFGGGTKLTVLG | 135 | no binding | 199 | 229 | 208000 |  |  | 
9 | G4_4 (antibody, human IgG1, V domains shown, also called clone G4_4) VH: QVQLVESGGGLVQPGGSLRLSCAASGFTFSSYAMSWVRQAPGKGLEWVSAISGSGGSTYYADSVKGRFTISRDNSKNTLYLQMSSLRVEDTAVYYCAKSSVGWWSFDYWGQGTMVTVSS VL: not shown |  |  | 90 | 190 |  |  |  | 
10 | G4_22 (antibody, human IgG1, V domains shown, also called clone G4_22) VH: QVQLVESGGGLVQPGGSLRLSCAASGFTFSTYAMSWVRQAPGKGLEWVSTVSGSGGTTYYADSVKGRFTISRDNSKNTLYLQMNSLRAEDTAVYYCAKDSTAVTDWFDPWGRGTLVTVSS VL: DIQMTQSPSSLSASVGDRVTITCQASQDISNYLNWYQQKPGKAPKLLIYAASSLQSGVPSRFSVSGSGTDFTLTISNLQPEDFATYYCQQSYSIPWTFGQGTKVEIKR | 47 | no binding | 567 | 980 | 109000 |  |  | 
11 | G4_2 (antibody, human IgG1, V domains shown, also called clone G4_2) VH: QMQLVQSGAEVKKPGATVKISCKVSGYPFTDYYIHWVQQAPGKGLEWMGLVDPEDGQSRSAERFQGRVTITADTSTDTAYMELSSLRSEDTAVYYCATFPVAGFYGMDVWGQGTLVTVSS VL: DIQMTQSPSSLSASVGDRVTITCQASQDISNYLNWYQQKPGKAPKLLIYAASSLQSGVPSRFSGSGSGTDFTLTISGLQPEDFATYYCLEDYNYLWTFGQGTKLEIKR | 56 | no binding | 86 | 270 | 201000 |  |  | 
12 | G4_1 (antibody, human IgG1, V domains shown, also called clone G4_1) VH: EVQLLESGGGVVQPGRPLRLSCAASGFTFSSYSMNWVRQAPGKGLEWVSSISSSSSYIYYADSVKGRFTISRDNSKNTLYLQMNSLRAEDTAVYYCAKGHWYFDLWGRGTLVTVSS VL: DIQMTQSPSSLSASVGDRVTITCQASQDISNYLNWYQQKPGKAPKLLIYDASNLETGVPSRFSGSGSGTDFTLTISSLQPEDFATYYCQQSYSTPVTFGPGTKVEIKR | 78 | no binding | 100 | 244 | 202000 |  |  | 
13 | G4_3 (antibody, human IgG1, V domains shown, also called 1139_P01_A04; G4_03) VH: EVQLVESGGGLVQPGGSLRLSCAASGFTFSSYSMNWVRQAPGKGLEWVSSISSSSSYIYYADSVKGRFTISRDNSKNTLYLQMNSLRAEDTAVYYCARGGWLYDYWGQGTLVTVSS VL: DIQMTQSPSSLSASVGDRVTITCQASQDISNYLNWYQQKPGKAPKLLIYDASNLETGVPSRFSGSGSGTDFTLTISSLQPEDFATYFCQQSYSTPQTFGQGTKVDIKR | 88 | no binding | 216 | 239 | 213000 | 2.86 | 3.69 | 2.03
14 | G4_13 (antibody, human IgG1, V domains shown, also called clone G4_13) VH: QVQLVESGAEVKKPGGSLRLSCAASGFTFSSYSMNWVRQAPGKGLEWVSSISGTSSYIYYADSVKGRFTISRDNAKNSLYLQMSSLRAEDTAVYYCARGGLGMVDPWGQGTLVTVSS VL: SNFMLTQPHSVSESPGKTVTISCTRSSGSIASNYVQWYQQRPGSSPSTVIYEDNQRPSGVPDRFSGSIDSSSNSASLTISGLRTEDEADYYCQSYDSSIYVVFGGGTKLTVLG | 78 | no binding | 94 | 270 | 196000 |  |  | 
15 | G4_16 (antibody, human IgG1, V domains shown, also called 1248_P02_D10; clone G4_16) VH: EVQLLESGAEVKKPGASVKVSCKASGYTFTSYGISWVRQAPGQGLEWMGWISAYNGNTNYAQKLQGRVTMTTDTSTSTAYMELRSLRSDDTAVYYCARDYGDFYGMDVWGQGTLVTVSS VL: SQSVLTQPPSASGSPGQSVTFSCTGTSSDIGAFNSVSWYQQHPGKAPKLLIYEITKRPSGVPDRFSGSKSGNTASLTISVLQAEDEADYYCTSYAGSNTLIFGGGTKVTVLG | 69 | no binding | 84 | 118 | 178000 |  |  | 
16 | G4_10 (antibody, human IgG1, V domains shown, also called clone G4_10) VH: QVQLVESGGGVVQPGRPLRLSCAASGFTFSSYAMHWVRQAPGKGLEWVSAISGSGGSTYYADSVKGRFTISRDNSKNTLYLQMNSLRAEDTAVYYCAKDGAVDFWRNGMDVWGRGTLVTVSS VL: DIVMTQPPLSLPVTLGHPASISCKSSQSLEYSDGNTYLNWFQQRPGQSPRRLIYKVSNRDSGAPDRFSGSGSGTDFTLEISRVEAEDVGVYYCMQGTLWPPTFGQGTKVDIKR | 57 | no binding | 109 | 187 | 145000 |  |  | 
